Data: patent publication US9895420

Target: chimeric-IL-1Ra (IL-1beta propeptide residues 1-120, HindIII-derived Lys-Leu linker, mature IL-1Ra)

B1: neutrophil elastase (Athens Research & Technology) (protein)
chain: IVGGRRARPHAWPFMVSLQLRGGHFCGATLIAPNFVMSAAHCVANVNVRAVRVVLGAHNLSRREPTRQVFAVQRIFENGYDPVNLLNDIVILQLNGSATINANVQVAQLPAQGRRLGNGVQCLAMGWGLLGRNRGIASVLQELNVTVVTSLCRRSNVCTLVRGRQAGVCFGDSGSPLVCNGLIHGIASFVRGGCASGLYPDAFAPVAQFVNWIDSIIQ
In the case of B1, the “cleavage of chimeric-IL-1Ra, Western blot with anti-IL-1Ra antibody” value is reported as “chimeric-IL-1Ra is cleaved to form a ˜20 kDa fragment, comparable in size to IL-1Ra”.
